± gives the uncertainty stated by the source.

The results in this text go back to the supplement of paper PMC7877785.

This data set can be described thus: self-splicing fitness, log relative to wild type (ln ratio); higher = more splicing; Tetrahymena group I intron in knt gene, E. coli kanamycin selection, DiMSum; sequences stand for … in CUCUCU…GGAGGGAAAAGUUAUCAGGCAUGCACCUGGUAGCUAGUCUUUAAACCAAUAGAUUGCAUCGGUUUAAAAGGCAAGACCGUCAAAUUGCGGGAAAGGGGUCAACAGCCGUUCAGUACCAAGUCUCAGGGGAAACUUUGAGAUGGCCUUGCAAAGGGUAUGGUAAUAAGCUGACGGACAUGGUCCUAACCACGCAGCCAAGUCCUAAGUCAACAGAUCUUCUGUUGAUAUGGAUGCAGUUCACAGACUAAAUGUCGGUCGGGGAAGAUGUAUUCUUCUCAUAAGAUAUAGUCGGACCUCUCCUUAAUGGGAGCUAGCGGAUGAAGUGAUGCAACACUGGAGCCGCUGGGAACUAAUUUGUAUGCGAAAGUAUAUUGAUUAGUUUUGGAGUACUCGUGGUCG
An outline of the steps: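 DiMSum derived fitness as the error-weighted combination of fold changes across replicates, kanamycin versus no kanamycin, normalised to wild type. E. coli BL21(DE3) held the library, which randomised all eight P1ex-region intron nucleotides within the knt kanamycin-resistance gene on pET-22b(+). Six replicate transformations grew overnight at 37°C or 30°C on LB agar with or without 25 μg/mL kanamycin, also containing 100 μg/mL carbenicillin, 50 μM IPTG and 0.2% rhamnose, and pooled colonies were amplicon-sequenced on an Illumina HiSeq 2500.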

On to GUCUAGCAAUAUUACGGUUU, for which the “self-splicing fitness (ln)” value reads like this: (30 °C) -1.42 ± 0.077; (37 °C) -0.192 ± 0.095. Consider UCAAAGCAAUAUUACGAAAA, for which the “self-splicing fitness (ln)” value (37 °C) was -2.95 ± 0.27. Same read-out and setting: the result for AGGGAGCAAUAUUACGUCGG reads -1.52 ± 0.38; that for CAGUAGCAAUAUUACGUUCU, -1.41 ± 0.2. Turning to GUUAAGCAAUAUUACGCUUA, the “self-splicing fitness (ln)” value is -3.09 ± 0.26 (30 °C) and -2.71 ± 0.25 (37 °C). For the sequence GAAGAGCAAUAUUACGGCAA, under “37 °C”, the “self-splicing fitness (ln)” value was -2.36 ± 0.49.

Regarding CCUGAGCAAUAUUACGUAGU, the “self-splicing fitness (ln)” value (30 °C) was -3.18 ± 0.14 and the “self-splicing fitness (ln)” value (37 °C) was -1.21 ± 0.14. For UGCGAGCAAUAUUACGGGAA, the “self-splicing fitness (ln)” value runs as follows: (30 °C) -3.87 ± 0.38; (37 °C) -2.5 ± 0.24.

GCGCAGCAAUAUUACGAGCG: the “self-splicing fitness (ln)” value was -2.39 ± 0.15 (30 °C) and -2.26 ± 0.24 (37 °C). The corresponding values for CGGUAGCAAUAUUACGAUAG are -0.323 ± 0.11 and 0.279 ± 0.14. In the same order, the values of CAAGAGCAAUAUUACGGAUC are -3.07 ± 0.18 and -3.27 ± 0.27. In the same order, the values of UUCAAGCAAUAUUACGACUU are -3.86 ± 0.15 and -2.65 ± 0.18. Turning to UGUCAGCAAUAUUACGUAUC, the “self-splicing fitness (ln)” value is -2.16 ± 0.2 (30 °C) and -1.68 ± 0.29 (37 °C). The corresponding values for UUUCAGCAAUAUUACGGGAU are -2.73 ± 0.12 and -1.64 ± 0.13. In the same order, the values of UAAAAGCAAUAUUACGGUCA are 0.0761 ± 0.086 and 0.333 ± 0.087.

As for AUUGAGCAAUAUUACGAGCG, the “self-splicing fitness (ln)” value (30 °C) is -3.1 ± 0.27. Turning to UAACAGCAAUAUUACGAACU, the “self-splicing fitness (ln)” value was -0.722 ± 0.11 (30 °C) and -0.651 ± 0.15 (37 °C). In the same order, the values of CUGUAGCAAUAUUACGAAUA are -2.54 ± 0.37 and -2.82 ± 0.48. The corresponding values for CCUCAGCAAUAUUACGGGCU are -2.67 ± 0.18 and -2.57 ± 0.25.

For the sequence ACGAAGCAAUAUUACGAGAA, where the note is “30 °C”, the “self-splicing fitness (ln)” value is -1.6 ± 0.37. CAUCAGCAAUAUUACGGACA: the “self-splicing fitness (ln)” value by setting is: (30 °C) -0.235 ± 0.21; (37 °C) -1.16 ± 0.15. Take CAGUAGCAAUAUUACGAACU: the “self-splicing fitness (ln)” value was -1.4 ± 0.22 (30 °C) and -1.05 ± 0.17 (37 °C). Regarding GUACAGCAAUAUUACGUCCA, the “self-splicing fitness (ln)” value runs as follows: (30 °C) -2.12 ± 0.13; (37 °C) -1.23 ± 0.14. In the same order, the values of CACCAGCAAUAUUACGGUGA are -2.61 ± 0.095 and -3.26 ± 0.15.

As for AGCCAGCAAUAUUACGCGAG, the “self-splicing fitness (ln)” value by setting is: (30 °C) -1.65 ± 0.13; (37 °C) -1.29 ± 0.16. Take AUGUAGCAAUAUUACGGUUA: the “self-splicing fitness (ln)” value (30 °C) is -0.747 ± 0.17 and the “self-splicing fitness (ln)” value (37 °C) is -0.518 ± 0.14. As to AUCGAGCAAUAUUACGGGAA, the “self-splicing fitness (ln)” value is -2.59 ± 0.24 (30 °C) and -2.4 ± 0.22 (37 °C). The corresponding values for AAGCAGCAAUAUUACGAAAU are -2.65 ± 0.11 and -1.33 ± 0.12. In the same order, the values of CAAAAGCAAUAUUACGGCUU are -3.44 ± 0.11 and -2.39 ± 0.11. Consider UACCAGCAAUAUUACGACUC, for which the “self-splicing fitness (ln)” value is -2.5 ± 0.18 (30 °C) and -1.65 ± 0.2 (37 °C).

Take ACUAAGCAAUAUUACGUCAG: the “self-splicing fitness (ln)” value is, setting by setting: (30 °C) -2.63 ± 0.16; (37 °C) -1.57 ± 0.23. In the same order, the values of GUCGAGCAAUAUUACGUACG are -2.29 ± 0.26 and -2.44 ± 0.41. Turning to ACCAAGCAAUAUUACGCUAC, the “self-splicing fitness (ln)” value (30 °C) is -2.89 ± 0.13 and the “self-splicing fitness (ln)” value (37 °C) was -0.773 ± 0.1. Take CUUCAGCAAUAUUACGCCAU: the “self-splicing fitness (ln)” value (30 °C) is -4.2 ± 0.3 and the “self-splicing fitness (ln)” value (37 °C) is -2.02 ± 0.23. On to GUGUAGCAAUAUUACGUGUA, for which the “self-splicing fitness (ln)” value (30 °C) is -2.62 ± 0.14 and the “self-splicing fitness (ln)” value (37 °C) was -1.22 ± 0.11. In the same order, the values of AAUGAGCAAUAUUACGGGUU are -2.36 ± 0.14 and -2.13 ± 0.2. In the same order, the values of ACUGAGCAAUAUUACGUCCA are -3.1 ± 0.36 and -2 ± 0.4. With UAAGAGCAAUAUUACGACUU, the “self-splicing fitness (ln)” value is, setting by setting: (30 °C) -2.79 ± 0.18; (37 °C) -0.528 ± 0.15. In the same order, the values of CCCGAGCAAUAUUACGUUCA are -3 ± 0.16 and -2.99 ± 0.22. In the case of AGUUAGCAAUAUUACGCAAU, the “self-splicing fitness (ln)” value was -1.6 ± 0.18 (30 °C) and -2.52 ± 0.29 (37 °C).
